{"source": "patent CN117886936A", "target": "hCD47-ECD-his (human) (UniProt Q08722)", "sequence (Q08722 other isoform, or with tags, fused parts or gaps)": "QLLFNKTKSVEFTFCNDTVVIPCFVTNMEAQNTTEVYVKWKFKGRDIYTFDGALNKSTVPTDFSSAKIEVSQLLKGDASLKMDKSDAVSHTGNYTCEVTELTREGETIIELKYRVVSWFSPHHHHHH", "experiment": "ELISA on coated human CD47-his after pre-incubating the antibody with human red blood cells (1E8/well)", "data": [{"substance": "ALX148", "values": [{"measurement": "EC50", "result": 3.15, "unit": "µg/mL"}]}]}
